Target: T1, GFP-p73α wild type, O15350
T1 chain: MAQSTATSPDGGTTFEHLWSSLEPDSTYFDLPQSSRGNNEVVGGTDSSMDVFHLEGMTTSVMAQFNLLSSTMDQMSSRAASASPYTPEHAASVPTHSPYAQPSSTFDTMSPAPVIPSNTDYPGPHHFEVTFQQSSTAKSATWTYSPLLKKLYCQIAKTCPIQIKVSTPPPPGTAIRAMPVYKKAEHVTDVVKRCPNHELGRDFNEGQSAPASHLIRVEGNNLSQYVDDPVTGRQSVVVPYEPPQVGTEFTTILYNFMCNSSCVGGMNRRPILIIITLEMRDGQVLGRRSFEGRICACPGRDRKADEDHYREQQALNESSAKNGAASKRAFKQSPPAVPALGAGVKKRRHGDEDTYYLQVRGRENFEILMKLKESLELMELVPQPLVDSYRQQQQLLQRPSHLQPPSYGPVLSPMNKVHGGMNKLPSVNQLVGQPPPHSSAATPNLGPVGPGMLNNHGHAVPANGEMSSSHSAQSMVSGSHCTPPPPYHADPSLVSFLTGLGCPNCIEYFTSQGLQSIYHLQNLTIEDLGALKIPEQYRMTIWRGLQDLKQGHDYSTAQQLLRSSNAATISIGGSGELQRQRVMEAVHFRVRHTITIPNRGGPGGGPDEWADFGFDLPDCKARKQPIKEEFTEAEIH
Experiment: cross-linking
Conditions: remark: other sources report otherwise

- stoichiometry N: 4
B1: GFP-p73α wild type, O15350-1 1-636 (natural protein)
chain: MAQSTATSPDGGTTFEHLWSSLEPDSTYFDLPQSSRGNNEVVGGTDSSMDVFHLEGMTTSVMAQFNLLSSTMDQMSSRAASASPYTPEHAASVPTHSPYAQPSSTFDTMSPAPVIPSNTDYPGPHHFEVTFQQSSTAKSATWTYSPLLKKLYCQIAKTCPIQIKVSTPPPPGTAIRAMPVYKKAEHVTDVVKRCPNHELGRDFNEGQSAPASHLIRVEGNNLSQYVDDPVTGRQSVVVPYEPPQVGTEFTTILYNFMCNSSCVGGMNRRPILIIITLEMRDGQVLGRRSFEGRICACPGRDRKADEDHYREQQALNESSAKNGAASKRAFKQSPPAVPALGAGVKKRRHGDEDTYYLQVRGRENFEILMKLKESLELMELVPQPLVDSYRQQQQLLQRPSHLQPPSYGPVLSPMNKVHGGMNKLPSVNQLVGQPPPHSSAATPNLGPVGPGMLNNHGHAVPANGEMSSSHSAQSMVSGSHCTPPPPYHADPSLVSFLTGLGCPNCIEYFTSQGLQSIYHLQNLTIEDLGALKIPEQYRMTIWRGLQDLKQGHDYSTAQQLLRSSNAATISIGGSGELQRQRVMEAVHFRVRHTITIPNRGGPGGGPDEWADFGFDLPDCKARKQPIKEEFTEAEIH

— publication PMC3760020
